# According to paper doi:10.1101/2023.03.05.531154:
# Biological target: Man5GlcNAc2-enriched CH505.M5.G458Y chimeric SOSIP gp140 Env trimer (HIV-1 (CH505 transmitted/founder virus) | HIV-1)
# Experiment: BLI
row,Substance,Kd [nM]
1,CH235 UCA IgG (antibody),4.5
2,CH235.12 Fab,0.2
